We go through one protein from article PMC5701055 (Nature Communications, 2017).

This data set deals with the molecule itself. Description: crystal structure.

B1: soluble ectodomain of human aminopeptidase N (hAPN), residues 66–967, WT (receptor)
chain: DQSKAWNRYRLPNTLKPDSYRVTLRPYLTPNDRGLYVFKGSSTVRFTCKEATDVIIIHSKKLNYTLSQGHRVVLRGVGGSQPPDIDKTELVEPTEYLVVHLKGSLVKDSQYEMDSEFEGELADDLAGFYRSEYMEGNVRKVVATTQMQAADARKSFPCFDEPAMKAEFNITLIHPKDLTALSNMLPKGPSTPLPEDPNWNVTEFHTTPKMSTYLLAFIVSEFDYVEKQASNGVLIRIWARPSAIAAGHGDYALNVTGPILNFFAGHYDTPYPLPKSDQIGLPDFNAGAMENWGLVTYRENSLLFDPLSSSSSNKERVVTVIAHELAHQWFGNLVTIEWWNDLWLNEGFASYVEYLGADYAEPTWNLKDLMVLNDVYRVMAVDALASSHPLSTPASEINTPAQISELFDAISYSKGASVLRMLSSFLSEDVFKQGLASYLHTFAYQNTIYLNLWDHLQEAVNNRSIQLPTTVRDIMNRWTLQMGFPVITVDTSTGTLSQEHFLLDPDSNVTRPSEFNYVWIVPITSIRDGRQQQDYWLIDVRAQNDLFSTSGNEWVLLNLNVTGYYRVNYDEENWRKIQTQLQRDHSAIPVINRAQIINDAFNLASAHKVPVTLALNNTLFLIEERQYMPWEAALSSLSYFKLMFDRSEVYGPMKNYLKKQVTPLFIHFRNNTNNWREIPENLMDQYSEVNAISTACSNGVPECEEMVSGLFKQWMENPNNNPIHPNLRSTVYCNAIAQGGEEEWDFAWEQFRNATLVNEADKLRAALACSKELWILNRYLSYTLNPDLIRKQDATSTIISITNNVIGQGLVWDFVQSNWKKLFNDYGGGSFSFSNLIQAVTRRFSTEYELQQLEQFKKDNEETGFGSGTRALEQALEKTKANIKWVKENKEVVLQWFTENSK
For the protein B1, the binding result is “binds”.
